# Experimental data reported in patent US12215162B2, “BAFF-R targeted chimeric antigen receptor-modified T-cells and uses thereof” (CITY OF HOPE, priority 2016, dated 2025).
# What was measured:
# [1] = test system: JeKo-1-CD20-KO; assay: In vivo JeKo-1-CD20-KO tumor model, antibody treatment; set-up: species or system NSG mice
# Source text: (§1) FIGS. 6A and 6B are images and FIG. 6C are graphs showing chimeric antibodies targeting human BAFF-R elicited in vivo therapeutic effects against drug resistant B-cell tumors. Bioluminescence images of mice challenged with luciferase-expressing tumors JeKo-1-CD20-KO cells (FIG. 6A) or ibrutinib-resistant Z-138 cells (FIG. 6B) followed by antibody treatments as in FIG. 4. Control group mice received PBS, NK cells alone, or rituximab on the same schedule. […] Tumor free rate and survival differences between experimental and all control groups were analyzed by log-rank test (** P<0.001). Data are representative of three independent experiments.
# (§2) In vivo studies. For tumor models, stable, luciferase-expressing tumors lines were established for bioluminescent imaging in mouse models. Briefly, a luciferase gene was introduced into tumor lines by a lentivirus gene delivery system (pLenti7.3/V5-DEST Gateway Vector Kit, Life Technologies, Carlsbad, CA). The minimum lethal dose per mouse was determined for each tumor cell line by dose titration. Tumor cells were injected intravenously (IV) and mice were monitored by in vivo bioluminescence imaging for minimum tumor dose to ensure engraftment. Minimum lethal tumor doses were 1×10^6 JeKo-1, 5×10^5 RS4; 11, 5×10^5 JeKo-1-CD20-KO, or 2.5×10^4 Z-138 cells. […]
# [2] = test system: JeKo-1, SU-DHL-6, Raji, and RL; assay: Flow cytometry binding to non-Hodgkin lymphoma lines; set-up: species or system human; details: Alexa Fluor 488 conjugated chimeric antibody
# Source text: FIGS. 1A, 1B, 1C, 1D and 1E are FACS images showing generation and specificity of novel monoclonal antibodies against human BAFF-R. FIG. 1A is a FACS analysis of cell surface expression of hBAFF-R-GFP fusion protein in mouse fibroblast L cells. Gated on GFP-positive cells, engineered L cell clone (right plot) is compared to parental L cells (left plot). Clone D2C was selected for further studies. FIGS. 1B, 1C, 1D and 1E are FACS traces of fluorescent counts of anti-BAFF-R antibodies binding cell lines and patient samples. […] BAFF-R-negative 293T embryonic kidney cell line was used as a control. […] Parental L cells and secondary anti-hIgG-APC antibodies only were used as controls. […] The data are representative of three independent experiments. For all of FIGS. 1B-1E, the traces from top to bottom as shown in the figures correlate with the variables (e.g., antibody type or cell type) used from top to bottom shown below or next to the figures.
# FIG. 10 are results of FACS analyses showing hBAFF-R mAbs recognized non-Hodgkin lymphoma cell lines in vitro. […] The traces from top to bottom as shown in the figures correlate with the variables (e.g., antibody type or cell type) used from top to bottom shown next to the figures.
# [3] = test system: JeKo-1-CD20-KO clone 25; assay: ADCC against rituximab-resistant JeKo-1-CD20-KO; type: cell-based, human; details: NK cells E:T 20:1
# Experimental: FIGS. 5A, 5B and 5C are images or graphs showing chimeric BAFF-R antibodies induce ADCC on drug resistant lymphoma models in vitro. FIG. 5A is a scatterplot of FACS analysis showing CD20 binding on JeKo-1 cells following CRISPR/HDR knock-out of CD20 gene. CD20 expression on selected CD20−/−clone #25 compared to WT JeKo-1. ADCC effects measured by chromium-51 release after incubation with C55, C90, or rituximab and effectors NK cells (E:T=20:1). Percentage of cell specific lysis of target cells: rituximab-resistant JeKo-1-CD20-KO (FIG. 5B) and ibrutinib-resistant Z-138 and SP49-IR (FIG. 5C). All data are representative of two or more identical experiments. Data are shown as the mean±s.d. of triplicate samples. *P<0.05 compared with NK cells by two-tailed Student's t-test.
# (§3) Cytotoxicity assays. Target cells (L cells, human tumor lines, primary patient samples) were labeled with chromium-51 (51Cr, Perkin Elmer, Waltham, MA) for a 51Cr release assay. Briefly, antibodies and effectors (NK cells or complement serum standard [Sigma Aldrich, St. Louis, MO]), were added to labeled target cells and incubated up to 18 hours. NK cells were enriched from PBMC (NK cell enrichment kit, Stemcell Technologies, Vancouver, Canada). 51Cr released into supernatant was detected with a Wizard Automatic Gamma Counter (Perkin Elmer).
# Generation of JeKo-1-CD20-KO. […]
# [4] = test system: JeKo-1 (MCL); assay: In vivo JeKo-1 MCL tumor model, antibody treatment; set-up: species or system NSG mice; details: 200 μg antibody + NK-92-176V cells + IL-2 IV, vs PBS or NK cells alone
# Source text: (§4) FIG. 4A is a schematic showing treatment schedule following Day 0 tumor challenge with minimum lethal dose of tumors. Treatments were given by IV tail vein injections. FIGS. 4B and 4C are images showing chimeric antibodies targeting human BAFF-R elicited in vivo therapeutic effects against B-cell tumors. Bioluminescence images of mice challenged with luciferase-expressing tumors: JeKo-1 (MCL) (FIG. 4B) or RS4; 11 (ALL) (FIG. 4C). Experimental groups received treatment of chimeric BAFF-R mAbs (C55 or C90, as indicated). Control group mice received PBS, NK cells alone, or rituximab on the same schedule. Data are representative of three independent experiments.
# as §2
# [5] = test system: Mino cells; assay: Internalization of antibody on Mino cells; type: cell-based, human; details: 37° C. for 1 hour
# Experimental: Mino cells were incubated with mAb C90 (0.05 μg/10^6 cells) at 4° C. for 20 minutes followed by incubation at 37° C. for 1 hour. Flow cytometry analysis was performed with anti-mouse IgG-APC. Cells were gated for surface localized antibodies (OUT) and loss of cell surface staining (IN).
# [6] = test system: Z-138; assay: In vivo ibrutinib-resistant Z-138 tumor model, antibody treatment; set-up: species or system NSG mice; details: vs PBS or NK only
# Source text: as §1, §2
# [7] = test system: RS4; 11 (acute lymphoblastic leukemia, ALL); assay: In vivo RS4;11 ALL tumor model, antibody treatment; set-up: species or system NSG mice; details: 200 μg antibody + NK-92-176V cells + IL-2 IV
# Source text: as §4, §2
# [8] = test system: primary CLL and MCL samples; assay: ADCC against primary samples from rituximab-treated patients; type: cell-based, human; details: CLL (n=3) and MCL (n=2), E:T 20:1
# Experimental: FIGS. 3A and 3B are graphs showing BAFF-R monoclonal antibodies induce in vitro Antibody Dependent Cell-Mediated Cytotoxicity (ADCC) against primary B-cell tumors. Antibody-dependent cell-mediated cytotoxicity (ADCC) effects were measured by chromium-51 release after incubation with C55, C90, or rituximab and effectors (NK cells). […] Data are shown as the mean±s.d. of triplicate samples. *P<0.05 compared with NK cells by two-tailed Student's t-test.
# as §3
# [9] = test system: BAFF-R-expressing L cells and JeKo-1; assay: ADCC chromium-51 release assay with NK cells; type: cell-based; details: NK cells E:T 20:1; controls parental L cells and U266
# Experimental: Antibody-induced cytotoxicities measured by chromium-51 release after incubation with C55, C90, or rituximab and effectors (NK cells or complement containing serum). NK effector cell to target ratio (E:T) of 20:1. […] Data are shown as the mean±s.d. of triplicate samples. *P<0.05 compared with NK cells by two-tailed Student's t-test.
# FIG. 12 is a graph showing chimeric antibodies induced ADCC against BAFF-R expressing L cells. BAFF-R-expressing D2C L cells (targets) were labeled with chromium-51 followed by incubation overnight with chimeric mAb+NK cells (effector to target ratio, 20:1). Culture supernatant was analyzed for released chromium.
# as §3
molecule,measurement,setting,value
"C55: chimeric mAb from clone 55 containing human IgG1 constant regions (antibody, V domains shown) VH: QVTLKESGPGILKPSQTLSLTCSFSGFSLSTSGMGVGWIRQPSGKGLEWLAHIWWDDDKYYNSSLKSHLTISKDTSRNQVFLKITSVDTADTATYYCARSFGYGLDYWGQGTTLTVSS VL: DIQMTQTTSSLSASLGDRVTISCSASQDISNYLNWYQQKPDGTVKLLIYYTSSLHSGVPSRFSGSGSGTDYSLTISSLEPEDIATYYCHQFSELPWTFGGGTKLEIK",tumor free and long-term overall survival,[1]; 80-day,significant antitumor effects
same,tumor burden by bioluminescent imaging,[1]; Day 20,no visible tumors
same,direct binding to NHL lines,[2],exhibited direct binding
same,sensitivity to antibody-mediated cytotoxicity,[3],retained sensitivity
same,tumor growth (bioluminescence),[4],significant retardation of tumor growth
same,internalization upon binding BAFF-R,[5],limited internalization
same,antitumor effects,[6],significant effects
same,tumor growth (bioluminescence),[7],markedly retarded tumor growth
same,killing by ADCC,[8],sensitive to killing by ADCC
same,antibody-dependent cell-mediated cytotoxicity (ADCC),[9],elicited antibody-dependent cell-mediated cytotoxicity (ADCC) specifically against BAFF-R-expressing L cells and JeKo-1
